Measured values taken from ChEMBL document CHEMBL3091431, “Aminopyridyl/Pyrazinyl Spiro[indoline-3,4'-piperidine]-2-ones As Highly Selective and Efficacious c-Met/ALK Inhibitors” (ACS Med Chem Lett, 2013).

Compound: Nc1ncnc2c1ncn2[C@@H]1O[C@H](COP(=O)(O)OP(=O)(O)OP(=O)(O)O)[C@@H](O)[C@H]1O
Test: Inhibition of human ALK (unknown origin) using poly[Glu:Tyr] as substrate by nanoliter kinase assay

B1: ALK tyrosine kinase receptor (Homo sapiens), Q9UM73 (protein)
chain: MGAIGLLWLLPLLLSTAAVGSGMGTGQRAGSPAAGPPLQPREPLSYSRLQRKSLAVDFVVPSLFRVYARDLLLPPSSSELKAGRPEARGSLALDCAPLLRLLGPAPGVSWTAGSPAPAEARTLSRVLKGGSVRKLRRAKQLVLELGEEAILEGCVGPPGEAAVGLLQFNLSELFSWWIRQGEGRLRIRLMPEKKASEVGREGRLSAAIRASQPRLLFQIFGTGHSSLESPTNMPSPSPDYFTWNLTWIMKDSFPFLSHRSRYGLECSFDFPCELEYSPPLHDLRNQSWSWRRIPSEEASQMDLLDGPGAERSKEMPRGSFLLLNTSADSKHTILSPWMRSSSEHCTLAVSVHRHLQPSGRYIAQLLPHNEAAREILLMPTPGKHGWTVLQGRIGRPDNPFRVALEYISSGNRSLSAVDFFALKNCSEGTSPGSKMALQSSFTCWNGTVLQLGQACDFHQDCAQGEDESQMCRKLPVGFYCNFEDGFCGWTQGTLSPHTPQWQVRTLKDARFQDHQDHALLLSTTDVPASESATVTSATFPAPIKSSPCELRMSWLIRGVLRGNVSLVLVENKTGKEQGRMVWHVAAYEGLSLWQWMVLPLLDVSDRFWLQMVAWWGQGSRAIVAFDNISISLDCYLTISGEDKILQNTAPKSRNLFERNPNKELKPGENSPRQTPIFDPTVHWLFTTCGASGPHGPTQAQCNNAYQNSNLSVEVGSEGPLKGIQIWKVPATDTYSISGYGAAGGKGGKNTMMRSHGVSVLGIFNLEKDDMLYILVGQQGEDACPSTNQLIQKVCIGENNVIEEEIRVNRSVHEWAGGGGGGGGATYVFKMKDGVPVPLIIAAGGGGRAYGAKTDTFHPERLENNSSVLGLNGNSGAAGGGGGWNDNTSLLWAGKSLQEGATGGHSCPQAMKKWGWETRGGFGGGGGGCSSGGGGGGYIGGNAASNNDPEMDGEDGVSFISPLGILYTPALKVMEGHGEVNIKHYLNCSHCEVDECHMDPESHKVICFCDHGTVLAEDGVSCIVSPTPEPHLPLSLILSVVTSALVAALVLAFSGIMIVYRRKHQELQAMQMELQSPEYKLSKLRTSTIMTDYNPNYCFAGKTSSISDLKEVPRKNITLIRGLGHGAFGEVYEGQVSGMPNDPSPLQVAVKTLPEVCSEQDELDFLMEALIISKFNHQNIVRCIGVSLQSLPRFILLELMAGGDLKSFLRETRPRPSQPSSLAMLDLLHVARDIACGCQYLEENHFIHRDIAARNCLLTCPGPGRVAKIGDFGMARDIYRASYYRKGGCAMLPVKWMPPEAFMEGIFTSKTDTWSFGVLLWEIFSLGYMPYPSKSNQEVLEFVTSGGRMDPPKNCPGPVYRIMTQCWQHQPEDRPNFAIILERIEYCTQDPDVINTALPIEYGPLVEEEEKVPVRPKDPEGVPPLLVSQQAKREEERSPAAPPPLPTTSSGKAAKKPTAAEISVRVPRGPAVEGGHVNMAFSQSNPPSELHKVHGSRNKPTSLWNPTYGSWFTEKPTKKNNPIAKKEPHDRGNLGLEGSCTVPPNVATGRLPGASLLLEPSSLTANMKEVPLFRLRHFPCGNVNYGYQQQGLPLEAATAPGAGHYEDTILKSKNSMNQPGP
**Q.** For B1, which Km is on record?
**A.** 50 µM
